# T1: Recombinant human B7-1/CD80 Fc chimera (Cat. 140-B1-100, R&D Systems) (human, UniProt P33681 35-242)
# T1 construct: extracellular domain; also called B7-1 antigen; Fc part of the bought chimera not given; not described
# T1 sequence (looked up): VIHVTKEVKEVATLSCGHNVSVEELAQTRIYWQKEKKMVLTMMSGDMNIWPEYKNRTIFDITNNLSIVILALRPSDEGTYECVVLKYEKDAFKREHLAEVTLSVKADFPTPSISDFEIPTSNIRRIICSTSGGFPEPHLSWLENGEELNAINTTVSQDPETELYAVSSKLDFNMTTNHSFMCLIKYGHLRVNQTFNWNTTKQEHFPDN
# T2: Recombinant human B7-2/CD86 Fc chimera (Cat. 141-B2-100, R&D Systems) (human, UniProt P42081 26-245)
# T2 construct: Fc part of the bought chimera not given; not described
# T2 sequence (looked up): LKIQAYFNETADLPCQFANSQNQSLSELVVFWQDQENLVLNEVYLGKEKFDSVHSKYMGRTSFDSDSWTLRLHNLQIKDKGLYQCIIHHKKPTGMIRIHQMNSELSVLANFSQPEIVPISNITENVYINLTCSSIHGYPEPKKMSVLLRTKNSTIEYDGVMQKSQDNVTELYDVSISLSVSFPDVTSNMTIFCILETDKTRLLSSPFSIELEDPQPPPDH
# B1: Anti-NGF (antibody, V domains shown)
# VH: QVQLQESGPGLVKPSETLSLTCTVSGFSLIGYDLNWIRQPPGKGLEWIGIIWGDGTTDYNSAVKSRVTISKDTSKNQFSLKLSSVTAADTAVYYCARGGYWYATSYYFDYWGQGTLVTVSS
# VL: DIQMTQSPSSLSASVGDRVTITCRASQSISNNLNWYQQKPGKAPKLLIYYTSRFHSGVPSRFSGSGSGTDFTFTISSLQPEDIATYYCQQEHTLPYTFGQGTKLEIKR
# B2: RAB021 (other)
# VH: EVQLVQSGAEVKKPGASVKVSCKASGYTFTKYWLGWVRQAPGQGLEWMGDIYPGYDYTHYNEKFKDRVTLTTDTSTSTAYMELRSLRSDDTAVYYCARSDGSSTYWGQGTLVTVSS
# VL: AMHVAQPAVVLASSRGIASFVCEYASPGKYTEVRVTVLRQADSQVTEVCAATYMMGNELTFLDDSICTGTSSGNQVNLTIQGLRAMDTGLYICKVELMYPPPYYEGIGNGTQIYVIDPEPCPDSDQEPKSSDKTHTSPDVLMTQTPLSLPVTPGEPASISCTSSQNIVHSNGNTYLEWYLQKPGQSPQLLIYKVSNRFSGVPDRFSGSGSGTDFTLKISRVEAEDVGVYYCFQVSHVPYTFGGGTKVEIKR
# notes: rDVD-Ig with LEA29Y on the light chain only and a QH linker; also called RAB021H; RAB021L
# B3: RAB019 (other)
# VH: AMHVAQPAVVLASSRGIASFVCEYASPGKYTEVRVTVLRQADSQVTEVCAATYMMGNELTFLDDSICTGTSSGNQVNLTIQGLRAMDTGLYICKVELMYPPPYYEGIGNGTQIYVIDPEPCPDSDQEPKSSDKTHTSPEVQLVQSGAEVKKPGASVKVSCKASGYTFTKYWLGWVRQAPGQGLEWMGDIYPGYDYTHYNEKFKDRVTLTTDTSTSTAYMELRSLRSDDTAVYYCARSDGSSTYWGQGTLVTVSS
# VL: B2 VL
# notes: rDVD-Ig with LEA29Y on both chains and QH linkers; also called RAB019H; RAB019L
# B4: RAB015 (other)
# VH: B2 VH
# VL: AMHVAQPAVVLASSRGIASFVCEYASPGKYTEVRVTVLRQADSQVTEVCAATYMMGNELTFLDDSICTGTSSGNQVNLTIQGLRAMDTGLYICKVELMYPPPYYEGIGNGTQIYVIDPEPCPDSDTVAAPSVFIFPPDVLMTQTPLSLPVTPGEPASISCTSSQNIVHSNGNTYLEWYLQKPGQSPQLLIYKVSNRFSGVPDRFSGSGSGTDFTLKISRVEAEDVGVYYCFQVSHVPYTFGGGTKVEIKR
# notes: rDVD-Ig with LEA29Y on the light chain only and a long linker; also called RAB015H; RAB015L
# B5: RAB013 (other)
# VH: AMHVAQPAVVLASSRGIASFVCEYASPGKYTEVRVTVLRQADSQVTEVCAATYMMGNELTFLDDSICTGTSSGNQVNLTIQGLRAMDTGLYICKVELMYPPPYYEGIGNGTQIYVIDPEPCPDSDASTKGPSVFPLAPEVQLVQSGAEVKKPGASVKVSCKASGYTFTKYWLGWVRQAPGQGLEWMGDIYPGYDYTHYNEKFKDRVTLTTDTSTSTAYMELRSLRSDDTAVYYCARSDGSSTYWGQGTLVTVSS
# VL: B4 VL
# notes: rDVD-Ig with LEA29Y on both chains and long linkers; also called RAB013H; RAB013L
# B6: RAB012 (other)
# VH: B1 VH
# VL: AMHVAQPAVVLASSRGIASFVCEYASPGKYTEVRVTVLRQADSQVTEVCAATYMMGNELTFLDDSICTGTSSGNQVNLTIQGLRAMDTGLYICKVELMYPPPYYEGIGNGTQIYVIDPEPCPDSDTVAAPDIQMTQSPSSLSASVGDRVTITCRASQSISNNLNWYQQKPGKAPKLLIYYTSRFHSGVPSRFSGSGSGTDFTFTISSLQPEDIATYYCQQEHTLPYTFGQGTKLEIKR
# notes: rDVD-Ig with LEA29Y on the light chain only and anti-NGF variable domains; also called RAB012H; RAB012L
# B7: RAB011 (other)
# VH: AMHVAQPAVVLASSRGIASFVCEYASPGKYTEVRVTVLRQADSQVTEVCAATYMMGNELTFLDDSICTGTSSGNQVNLTIQGLRAMDTGLYICKVELMYPPPYYEGIGNGTQIYVIDPEPCPDSDASTKGPQVQLQESGPGLVKPSETLSLTCTVSGFSLIGYDLNWIRQPPGKGLEWIGIIWGDGTTDYNSAVKSRVTISKDTSKNQFSLKLSSVTAADTAVYYCARGGYWYATSYYFDYWGQGTLVTVSS
# VL: B1 VL
# notes: rDVD-Ig with LEA29Y on the heavy chain only and anti-NGF variable domains; also called RAB011H; RAB011L
# B8: RAB009 (other)
# VH: B2 VH
# VL: AMHVAQPAVVLASSRGIASFVCEYASPGKYTEVRVTVLRQADSQVTEVCAATYMMGNELTFLDDSICTGTSSGNQVNLTIQGLRAMDTGLYICKVELMYPPPYYEGIGNGTQIYVIDPEPCPDSDTVAAPDVLMTQTPLSLPVTPGEPASISCTSSQNIVHSNGNTYLEWYLQKPGQSPQLLIYKVSNRFSGVPDRFSGSGSGTDFTLKISRVEAEDVGVYYCFQVSHVPYTFGGGTKVEIKR
# notes: rDVD-Ig with LEA29Y on the light chain only; also called RAB009H; RAB009L
# B9: RAB007 (other)
# VH: AMHVAQPAVVLASSRGIASFVCEYASPGKYTEVRVTVLRQADSQVTEVCAATYMMGNELTFLDDSICTGTSSGNQVNLTIQGLRAMDTGLYICKVELMYPPPYYEGIGNGTQIYVIDPEPCPDSDASTKGPEVQLVQSGAEVKKPGASVKVSCKASGYTFTKYWLGWVRQAPGQGLEWMGDIYPGYDYTHYNEKFKDRVTLTTDTSTSTAYMELRSLRSDDTAVYYCARSDGSSTYWGQGTLVTVSS
# VL: B8 VL
# notes: rDVD-Ig with LEA29Y on both chains; also called RAB007H; RAB007L
# B10: RAB008 (other)
# VH: B9 VH
# VL: DVLMTQTPLSLPVTPGEPASISCTSSQNIVHSNGNTYLEWYLQKPGQSPQLLIYKVSNRFSGVPDRFSGSGSGTDFTLKISRVEAEDVGVYYCFQVSHVPYTFGGGTKVEIKR
# notes: rDVD-Ig with LEA29Y on the heavy chain only; also called RAB008H; RAB008L
# Target: NGF
# Assay: cell-based or functional assay
"C-terminal Bioassay Mean (IC50, nM): Cell Impedance assay [nM]","C-terminal Bioassay Mean (IC50, nM): pERK assay [nM]",Binder
7.8,0.6,B1

# Target: T1, Recombinant human B7-1/CD80 Fc chimera …
# Assay: direct bind ELISA, coated recombinant human B7-1/CD80 Fc chimera
# Procedure: Enzyme Linked Immunosorbent Assays (ELISA) to screen for antibodies that bind a desired target antigen were performed as follows. High bind ELISA plates (Corning Costar #3369, Acton, Mass.) were coated with 100 μL/well of 10 μg/ml of desired target antigen (R&D Systems, Minneapolis, Minn.) or desired target antigen extra-cellular domain/FC fusion protein (R&D Systems, Minneapolis, Minn.) or monoclonal mouse anti-polyHistidine antibody (R&D Systems #MAB050, Minneapolis, Minn.) in phosphate buffered saline (10×PBS, Abbott Bioresearch Center, Media Prep#MPS-073, Worcester, Mass.) overnight at 4° C. Plates were washed four times with PBS containing 0.02% Tween 20. Plates were blocked by the addition of 300 μL/well blocking solution (non-fat dry milk powder, various retail suppliers, diluted to 2% in PBS) for ½ hour at room temperature. Plates were washed four times after blocking with PBS containing 0.02% Tween 20.
# One hundred microliters of 10 ng/mL goat anti-human IgG-FC specific HRP conjugated antibody (Southern Biotech #2040-05, Birmingham, Ala.) was added to each well of the desired target antigen plate or anti-polyHistidine antibody/Histidine tagged desired target antigen plate. Alternatively, one hundred microliters of 10 ng/mL goat anti-human IgG-kappa light chain specific HRP conjugated antibody (Southern Biotech #2060-05 Birmingham, Ala.) was added to each well of the desired target antigen/FC fusion plate and incubated for 1 hour at room temperature. Plates were washed 4 times with PBS containing 0.02% Tween 20.
# One hundred microliters of enhanced TMB solution (Neogen Corp. #308177, K Blue, Lexington, Ky.) was added to each well and incubated for 10 minutes at room temperature. The reaction was stopped by the addition of 50 μL 1N sulphuric acid. Plates were read spectrophotometrically at a wavelength of 450 nm
EC50 [nM],binding result,Binder
2.5,,B2
,no binding,B3
34.9,,B4
21.2,,B5

# Target: T2, Recombinant human B7-2/CD86 Fc chimera …
# Assay: competitive ELISA; coated CD28 Fc, biotinylated B7-2/CD86 Fc, construct titrated
# Procedure: (§1) ELISA plates (Nunc, MaxiSorp, Rochester, N.Y.) were incubated overnight at 4° C. with Recombinant Human CD28 Fc Chimera (Cat. #342-CD-200). Plates were washed three times in washing buffer (PBS containing 0.05% Tween 20), and blocked for 1 hour at 25° C. in blocking buffer (PBS containing 1% BSA). Wells were washed three times, and serial dilutions of each antibody or DVD-Ig in PBS containing 0.1% BSA were added to the wells and incubated at 25° C. for 1 hour. The wells were washed three times, and biotinylated antigen (2 nM) was added to the plates and incubated for 1 hour at 25° C. The wells were washed three times and incubated for 1 hour at 25° C. with streptavidin-HRP (KPL #474-3000, Gaithersburg, Md.). The wells were washed three times, and 100 μl of ULTRA-TMB ELISA (Pierce, Rockford, Ill.) was added per well. Following color development the reaction was stopped with 1N HCL and absorbance at 450 nm was measured. Recombinant human B7-1/CD80 Fc chimera (Cat. 140-B1-100, R&D Systems, Minneapolis, Minn.) was used.
# Recombinant human B7-2/CD86 Fc chimera (Cat. 141-B2-100, R&D Systems, Minneapolis, Minn.) was used.
row,EC50 [nM],Binder
1,4.2,B6
2,1.3,B7
3,0.8,B2
4,0.3,B8
5,2.1,B9
6,1,B10
7,0.5,B5

# Target: T1, Recombinant human B7-1/CD80 Fc chimera …
# Assay: competitive ELISA; coated CD28 Fc, biotinylated B7-1/CD80 Fc (2 nM), construct titrated
# Procedure: as §1
row,EC50 [nM],Binder
1,2.5,B6
2,1.6,B7
3,2.4,B2
4,78.9,B4
5,2.7,B8
6,6.6,B9
7,1.5,B10
8,2,B5
